The values below come from publication PMC11883000, “Structure-function relationship of ASH1L and histone H3K36 and H3K4 methylation” (Nature Communications, 2025).

Where a chain is given by its changes, count along the chain named. In names and notes the source's numbering stands. Entries after “also recorded” stand apart in the source; their conditions may differ.

What all share (type): binding
The test system of experiment [1] is 147 bp 601 DNA. Briefly: EMSA with 147 bp 601 DNA. The conditions noted are these: 0.05 µM 147 bp 601 DNA, increasing protein, 25 mM Tris pH 7.5, 20 mM NaCl, 20% glycerol, on ice 5 min, at least in duplicate. Background: In EMSA bound probe runs differently from free probe, usually more slowly.
The test system of experiment [2] is H3K4me3-NCP. The conditions noted are these: EMSA.
In experiment [3] the test system is unmodified 147 bp NCP. Briefly: EMSA with unmodified 147 bp NCP. The note with it: 0.025 µM nucleosome, pH 7.5, compared to H3K4me3-NCP.
The test system of experiment [4] is unmodified 187 bp NCP. The experiment is described as follows: EMSA with unmodified 187 bp NCP.

B1: ASH1LPHD-BAH: Human ASH1L construct (aa 2579-2794 and 2579-2834) (protein, UniProt Q9NR48 2579-2834, looked up, fragment)
chain: HEKDDDVIRCICGLYKDEGLMIQCDKCMVWQHCDCMGVNSDVEHYLCEQCDPRPVDREVPMIPRPHYAQPGCVYFICLLRDDLLLRQGDCVYLMRDSRRTPDGHPVRQSYRLLSHINRDKLDIFRIEKLWKNEKEERFAFGHHYFRPHETHHSPSRRFYHNELFRVPLYEIIPLEAVVGTCCVLDLYTYCKGRPKGVKEQDVYICDYRLDKSAHLFYKIHRNRYPVCTKPYAFDHFPKKLTPKKDFSPHYVPDNYK
modifications: also 2579-2794 construct
Regarding B1, in experiment [1], the DNA binding entry is reported as “forms a tight complex with 601 DNA”. Further, in experiment [2] (0.025 µM nucleosome, increasing protein, pH 7.5, on ice 5 min), the “binding to H3K4me3-NCP” value is listed as “formed a tight complex”. Further, the “binding to unmodified 147 bp NCP” value in experiment [3] is listed as “decreased”. Further, in experiment [4] (0.025 µM nucleosome, pH 7.5, compared to unmodified 147 bp NCP), the “binding to unmodified 187 bp NCP” value is given as “increased”.

B2: ASH1LBD-PHD-BAH: Human ASH1L construct (aa 2436-2833) (protein, UniProt Q9NR48 2436-2833, looked up, fragment)
chain: NIEVARAARLAQIFKEICDGIISYKDSSRQALAAPLLNLPPKKKNADYYEKISDPLDLITIEKQILTGYYKTVEAFDADMLKVFRNAEKYYGRKSPVGRDVCRLRKAYYNARHEASAQIDEIVGETASEADSSETSVSEKENGHEKDDDVIRCICGLYKDEGLMIQCDKCMVWQHCDCMGVNSDVEHYLCEQCDPRPVDREVPMIPRPHYAQPGCVYFICLLRDDLLLRQGDCVYLMRDSRRTPDGHPVRQSYRLLSHINRDKLDIFRIEKLWKNEKEERFAFGHHYFRPHETHHSPSRRFYHNELFRVPLYEIIPLEAVVGTCCVLDLYTYCKGRPKGVKEQDVYICDYRLDKSAHLFYKIHRNRYPVCTKPYAFDHFPKKLTPKKDFSPHYVPDNY
B2: the DNA binding entry in experiment [1] is on record as “restored; also recorded: further increased”. Moreover, the “preference over 147bp-NCP” value is “maintained” in experiment [2] (H3K4me3-NCP over 147bp-NCP) and “maintained; also recorded: this preference was retained” in experiment [4] (187bp-NCP over 147bp-NCP).

B3: ASH1LBD-PHD: Human ASH1L construct (aa 2430-2629) (protein)
chain: NIEVARAARLAQIFKEICDGIISYKDSSRQALAAPLLNLPPKKKNADYYEKISDPLDLITIEKQILTGYYKTVEAFDADMLKVFRNAEKYYGRKSPVGRDVCRLRKAYYNARHEASAQIDEIVGETASEADSSETSVSEKENGHEKDDDVIRCICGLYKDEGLMIQCDKCMVWQHCDCMGVNSDVEHYLCEQCDPRPVDREVP
Regarding B3, the DNA binding entry in experiment [1] was “decreased”.

B4: ASH1LBD: Human ASH1L bromodomain (aa 2430-2564) (protein)
chain: LAAAEENIEVARAARLAQIFKEICDGIISYKDSSRQALAAPLLNLPPKKKNADYYEKISDPLDLITIEKQILTGYYKTVEAFDADMLKVFRNAEKYYGRKSPVGRDVCRLRKAYYNARHEASAQIDEIVGETASE
modifications: left off: GST, end not stated, cleaved
Turning to B4, the DNA binding entry in experiment [1] is recorded as “forms a complex with DNA”.

B5: K2477Q/K2478Q/K2479Q mutant: K2477Q/K2478Q/K2479Q mutant of ASH1LBD (protein, UniProt Q9NR48 2430-2564, looked up, variant K2477Q K2478Q K2479Q)
chain: B4 chain with K48Q, K49Q, K50Q
modifications: bromodomain
notes: K2477Q/K2478Q/K2479Q mutant of ASH1LBD
For B5, the DNA binding entry in experiment [1] was “diminished”.

B6: K2524Q/R2528Q/K2529Q mutant: K2524Q/R2528Q/K2529Q mutant of ASH1LBD (protein, UniProt Q9NR48 2430-2564, looked up, variant K2524Q R2528Q K2529Q)
chain: B4 chain with K95Q, R99Q, K100Q
modifications: bromodomain
notes: K2524Q/R2528Q/K2529Q mutant of ASH1LBD
For B6, the DNA binding result in experiment [1] is on record as “lost its ability to bind DNA”.
